# Laboratory results as given in IntAct's records for PubMed 24229708.
# B1: Runt-related transcription factor 3 (Homo sapiens), Q13761 (parent)
# chain: MRIPVDPSTSRRFTPPSPAFPCGGGGGKMGENSGALSAQAAVGPGGRARPEVRSMVDVLADHAGELVRTDSPNFLCSVLPSHWRCNKTLPVAFKVVALGDVPDGTVVTVMAGNDENYSAELRNASAVMKNQVARFNDLRFVGRSGRGKSFTLTITVFTNPTQVATYHRAIKVTVDGPREPRRHRQKLEDQTKPFPDRFGDLERLRMRVTPSTPSPRGSLSTTSHFSSQPQTPIQGTSELNPFSDPRQFDRSFPTLPTLTESRFPDPRMHYPGAMSAAFPYSATPSGTSISSLSVAGMPATSRFHHTYLPPPYPGAPQNQSGPFQANPSPYHLYYGTSSGSYQFSMVAGSSSGGDRSPTRMLASCTSSAASVAAGNLMNPSLGGQSDGVEADGSHSNSPTALSTPGRMDEAVWRPY
# Variants of: B1
# Details: with brd2_human BRD2, P25440
row,effect of a mutation on the interaction,Variant
1,disrupting interaction,K94R;K171R
2,decreasing interaction,K171R

# Further lines, the variant ahead of its results:
row,Variant,effect of a mutation on the interaction
1,K94R,disrupting interaction
2,K87R;K94R;K129R;K148R;K171R;K186R,disrupting interaction
